# According to the RNAGym collection of RNA variant scans (doi:10.7554/elife.80360):
# B1: Hairpin Ribozyme (parent)
# chain: GUCCUCUUUCACGUGCGCGUGAAAGAGAGAAGUGAACCAGAGAAACACACGUUGUGGUAUAUUACCUGGUA
# Variants of: B1
# Test: self-cleavage, relative activity (ratio to wild type); higher = more cleavage; co-transcriptional
row,Variant,self-cleavage
1,A22U G32U,0.0918
2,A22U G34C,0.996
3,A22U G34U,1.21
4,A22U G40C,0.122
5,A22U G42U,0.369
6,A22U G51A,0.811
7,A22U G56C,0.214
8,A22U G56U,0.063
9,A22U G57A,0.121
10,A22U G57C,0.175
11,A22U G68C,0.252
12,A22U G69C,0.219
13,A22U U33G,0.174
14,A22U U52A,0.836
15,A22U U53A,0.859
16,A22U U53C,0.897
17,A22U U55A,0.255
18,A22U U55C,0.178
19,A22U U58C,1.04
20,A22U U60A,0.77
21,A22U U62G,0.147

row,Variant,self-cleavage
1,A22U U63C,0.0646
2,A22U U63G,0.203
3,A22U U67A,0.188
4,A22U U67C,0.168
5,A23C A24U,0.626
6,A23C A26G,1.01
7,A23C A26U,0.499
8,A23C A30G,0.184
9,A23C A30U,0.118
10,A23C A39C,0.517
11,A23C A41G,0.928
12,A23C A44C,0.251
13,A23C A45U,0.207
14,A23C A47C,0.417
15,A23C A47U,0.0967
16,A23C A49G,0.393
17,A23C A49U,0.257
18,A23C A61G,0.161
19,A23C A61U,0.204
20,A23C A64C,0.0802
21,A23C A64U,0.118

row,Variant,self-cleavage
1,A23C A71C,1.16
2,A23C A71G,0.936
3,A23C C37U,0.444
4,A23C C38G,0.0489
5,A23C C46U,0.0785
6,A23C G27U,0.253
7,A23C G29A,0.177
8,A23C G29U,0.0906
9,A23C G32A,0.102
10,A23C G32C,0.0217
11,A23C G32U,0.15
12,A23C G40A,0.342
13,A23C G40U,0.175
14,A23C G42A,0.287
15,A23C G42C,0.422
16,A23C G42U,0.348
17,A23C G51U,0.993
18,A23C G54A,0.416
19,A23C G54U,0.7
20,A23C G56C,0.191
21,A23C G68C,0.138

row,Variant,self-cleavage
1,A23C G68U,0.262
2,A23C G69U,0.297
3,A23C U55C,0.184
4,A23C U58A,0.49
5,A23C U58C,0.821
6,A23C U60A,0.744
7,A23C U60C,0.921
8,A23C U62C,0.206
9,A23C U63C,0.136
10,A23C U70A,0.872
11,A23C U70G,0.685
12,A23G A28C,0.641
13,A23G A30C,0.115
14,A23G A30U,0.181
15,A23G A31C,0.194
16,A23G A35G,0.939
17,A23G A36G,0.933
18,A23G A36U,0.514
19,A23G A44G,0.126
20,A23G A45C,0.0971
